The target of this test is T1, MBP-DA2 (Arabidopsis, UniProt Q93YV5 1-401).
T1 construct: Used as bacterial lysate and held on amylose resin; also called DA2 expressed as a MBP fusion protein; DA2-MBP
T1 sequence: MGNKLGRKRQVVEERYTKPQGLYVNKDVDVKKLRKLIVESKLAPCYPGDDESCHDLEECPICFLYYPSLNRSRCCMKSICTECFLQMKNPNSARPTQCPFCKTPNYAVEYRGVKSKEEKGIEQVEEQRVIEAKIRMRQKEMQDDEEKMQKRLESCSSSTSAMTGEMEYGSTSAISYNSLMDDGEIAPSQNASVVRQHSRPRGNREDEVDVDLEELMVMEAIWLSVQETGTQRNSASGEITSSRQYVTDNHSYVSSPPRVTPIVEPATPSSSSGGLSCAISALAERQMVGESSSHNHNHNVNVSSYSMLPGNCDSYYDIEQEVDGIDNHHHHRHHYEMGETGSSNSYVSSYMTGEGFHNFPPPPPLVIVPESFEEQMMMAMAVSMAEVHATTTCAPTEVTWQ
In words: in vitro pull-down on amylose resin, anti-GST immunoblot. As to the method:
To test protein-protein interaction, bacterial lysates containing approximately 15 μg of MBP-DA2 fusion proteins were combined with lysates containing approximately 30 μg of GST-DA1, GST-DA1R358K, GST-DA1-UIM, GST-DA1-LIM, GST-DA1-LIM+C or GST-DA1-C fusion proteins. 20 μl amylose resin (New England Biolabs) was added into each combined solution with continued rocking at 4° C. for 1 hour. Beads were washed […] with TGH buffer, and the isolated proteins were separated on a 10% SDS-polyactyamide gel and detected by western blot analysis with anti-GST (Abmart) and anti-MBP antibodies (Abmart), respectively.
(In general: In western blotting, separated proteins are transferred to a membrane and probed.)

B1: GST-DA1-LIM (other)
chain: RICAGCNMEIGHGRFLNCLNSLWHPECFRCYGCSQPISEYEFSTSGNYPFHKACYRERYHP
notes: Only the LIM domain was in the assay; not shown: glutathione S-transferase (GST) tag from vector pGEX-4T-1
Consider B1, for which the binding result is on record as “no binding”.

B2: GST-DA1-UIM (other)
chain: MGWFNKIFKGSNQRLRVGNNKHNHNVYYDNYPTASHDDEPSAADTDADNDEPHHTQEPSTSEDNTSNDQENEDIDRAIALSLLEENQEQTSISGKYSMPVDEDEQLARALQESMVVGNSPRHKSGSTYDNGNAYGAGDLYGNGHMYGGGNVYANGDIYYPRPITFQMDF
notes: Only the part holding the two UIM domains was in the assay; not shown: glutathione S-transferase (GST) tag from vector pGEX-4T-1
In the case of B2, the binding result is listed as “no binding”.

Values taken from patent US20190300897A1 (INSTITUTE OF GENETICS AND DEVELOPMENTAL BIOLOGY CHINESE …, published 2019).
